The results in this text go back to patent US12679878B2, “CRF2 receptor agonists and their use in therapy” (SANOFI, priority 2020, dated 2026).

For the test, the target named is human corticotropin-releasing factor 2α (CRF2 α receptor) (human), Q13324. In words: cell-based or functional assay.

Starred links: 1 amine or outer side, 2 acyl side, 3 side chain; linkers in the order of their positions; H or OH if unused. Non-standard residues stand in square brackets, D forms with d. Groups on a side chain read outwards from the residue. No end group written: not given here. *: point of attachment. C18 diacid = O=C(O)CCCCCCCCCCCCCCCCC(=O)*; γGlu = O=C(O)[C@H](CCC(=O)[*:2])N[*:1]; AEEA = NCCOCCOCC(=O)O; Aib = CC(C)(N)C(=O)O

human corticotropin-releasing factor 2α (CRF2 α receptor) (human), Q13324, sequence (Q13324 20-411): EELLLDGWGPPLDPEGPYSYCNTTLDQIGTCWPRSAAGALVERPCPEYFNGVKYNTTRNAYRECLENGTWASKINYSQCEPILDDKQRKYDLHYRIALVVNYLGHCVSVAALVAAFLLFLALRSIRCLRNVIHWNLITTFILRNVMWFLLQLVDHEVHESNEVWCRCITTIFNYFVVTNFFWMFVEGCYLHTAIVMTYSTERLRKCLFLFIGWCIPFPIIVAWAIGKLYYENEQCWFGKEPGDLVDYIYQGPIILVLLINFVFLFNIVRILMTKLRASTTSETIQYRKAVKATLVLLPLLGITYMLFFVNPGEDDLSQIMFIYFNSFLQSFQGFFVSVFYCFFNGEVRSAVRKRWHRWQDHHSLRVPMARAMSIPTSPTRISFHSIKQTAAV

B1: SEQ ID NO: 71 (peptide)
peptide: IVLSLDVPIKLK([AEEA-AEEA-γGlu-C18 diacid])K[Aib]LLEQERQKKQREQAETN[Aib]QILAQV-NH2
modifications: N-terminus assumed
SMILES: CC[C@H](C)[C@H](N)C(=O)N[C@H](C(=O)N[C@@H](CC(C)C)C(=O)N[C@@H](CO)C(=O)N[C@@H](CC(C)C)C(=O)N[C@@H](CC(=O)O)C(=O)N[C@H](C(=O)N1CCC[C@H]1C(=O)N[C@H](C(=O)N[C@@H](CCCCN)C(=O)N[C@@H](CC(C)C)C(=O)N[C@@H](CCCCNC(=O)COCCOCCNC(=O)COCCOCCNC(=O)CC[C@H](NC(=O)CCCCCCCCCCCCCCCCC(=O)O)C(=O)O)C(=O)N[C@@H](CCCCN)C(=O)NC(C)(C)C(=O)N[C@@H](CC(C)C)C(=O)N[C@@H](CC(C)C)C(=O)N[C@@H](CCC(=O)O)C(=O)N[C@@H](CCC(N)=O)C(=O)N[C@@H](CCC(=O)O)C(=O)N[C@@H](CCCNC(=N)N)C(=O)N[C@@H](CCC(N)=O)C(=O)N[C@@H](CCCCN)C(=O)N[C@@H](CCCCN)C(=O)N[C@@H](CCC(N)=O)C(=O)N[C@@H](CCCNC(=N)N)C(=O)N[C@@H](CCC(=O)O)C(=O)N[C@@H](CCC(N)=O)C(=O)N[C@@H](C)C(=O)N[C@@H](CCC(=O)O)C(=O)N[C@H](C(=O)N[C@@H](CC(N)=O)C(=O)NC(C)(C)C(=O)N[C@@H](CCC(N)=O)C(=O)N[C@H](C(=O)N[C@@H](CC(C)C)C(=O)N[C@@H](C)C(=O)N[C@@H](CCC(N)=O)C(=O)N[C@H](C(N)=O)C(C)C)[C@@H](C)CC)[C@@H](C)O)[C@@H](C)CC)C(C)C)C(C)C
Regarding B1, the EC50 [nM], 0% HSA came to 3.15 nM.

B2: SEQ ID NO: 72 (peptide)
peptide: IVLSLDVPIKLK([AEEA-AEEA-γGlu-C18 diacid])QILLEQERQKKQRQQAETN[Aib]QILAQV-NH2
modifications: N-terminus assumed
SMILES: CC[C@H](C)[C@H](N)C(=O)N[C@H](C(=O)N[C@@H](CC(C)C)C(=O)N[C@@H](CO)C(=O)N[C@@H](CC(C)C)C(=O)N[C@@H](CC(=O)O)C(=O)N[C@H](C(=O)N1CCC[C@H]1C(=O)N[C@H](C(=O)N[C@@H](CCCCN)C(=O)N[C@@H](CC(C)C)C(=O)N[C@@H](CCCCNC(=O)COCCOCCNC(=O)COCCOCCNC(=O)CC[C@H](NC(=O)CCCCCCCCCCCCCCCCC(=O)O)C(=O)O)C(=O)N[C@@H](CCC(N)=O)C(=O)N[C@H](C(=O)N[C@@H](CC(C)C)C(=O)N[C@@H](CC(C)C)C(=O)N[C@@H](CCC(=O)O)C(=O)N[C@@H](CCC(N)=O)C(=O)N[C@@H](CCC(=O)O)C(=O)N[C@@H](CCCNC(=N)N)C(=O)N[C@@H](CCC(N)=O)C(=O)N[C@@H](CCCCN)C(=O)N[C@@H](CCCCN)C(=O)N[C@@H](CCC(N)=O)C(=O)N[C@@H](CCCNC(=N)N)C(=O)N[C@@H](CCC(N)=O)C(=O)N[C@@H](CCC(N)=O)C(=O)N[C@@H](C)C(=O)N[C@@H](CCC(=O)O)C(=O)N[C@H](C(=O)N[C@@H](CC(N)=O)C(=O)NC(C)(C)C(=O)N[C@@H](CCC(N)=O)C(=O)N[C@H](C(=O)N[C@@H](CC(C)C)C(=O)N[C@@H](C)C(=O)N[C@@H](CCC(N)=O)C(=O)N[C@H](C(N)=O)C(C)C)[C@@H](C)CC)[C@@H](C)O)[C@@H](C)CC)[C@@H](C)CC)C(C)C)C(C)C
B2 showed an EC50 [nM], 0% HSA of 0.65 nM.

B3: SEQ ID NO: 70 (peptide)
peptide: IVLSLDVPIKLK([AEEA-AEEA-γGlu-C18 diacid])QILLEQERQKKQREQAETN[Aib]QILAQV-NH2
modifications: N-terminus assumed
SMILES: CC[C@H](C)[C@H](N)C(=O)N[C@H](C(=O)N[C@@H](CC(C)C)C(=O)N[C@@H](CO)C(=O)N[C@@H](CC(C)C)C(=O)N[C@@H](CC(=O)O)C(=O)N[C@H](C(=O)N1CCC[C@H]1C(=O)N[C@H](C(=O)N[C@@H](CCCCN)C(=O)N[C@@H](CC(C)C)C(=O)N[C@@H](CCCCNC(=O)COCCOCCNC(=O)COCCOCCNC(=O)CC[C@H](NC(=O)CCCCCCCCCCCCCCCCC(=O)O)C(=O)O)C(=O)N[C@@H](CCC(N)=O)C(=O)N[C@H](C(=O)N[C@@H](CC(C)C)C(=O)N[C@@H](CC(C)C)C(=O)N[C@@H](CCC(=O)O)C(=O)N[C@@H](CCC(N)=O)C(=O)N[C@@H](CCC(=O)O)C(=O)N[C@@H](CCCNC(=N)N)C(=O)N[C@@H](CCC(N)=O)C(=O)N[C@@H](CCCCN)C(=O)N[C@@H](CCCCN)C(=O)N[C@@H](CCC(N)=O)C(=O)N[C@@H](CCCNC(=N)N)C(=O)N[C@@H](CCC(=O)O)C(=O)N[C@@H](CCC(N)=O)C(=O)N[C@@H](C)C(=O)N[C@@H](CCC(=O)O)C(=O)N[C@H](C(=O)N[C@@H](CC(N)=O)C(=O)NC(C)(C)C(=O)N[C@@H](CCC(N)=O)C(=O)N[C@H](C(=O)N[C@@H](CC(C)C)C(=O)N[C@@H](C)C(=O)N[C@@H](CCC(N)=O)C(=O)N[C@H](C(N)=O)C(C)C)[C@@H](C)CC)[C@@H](C)O)[C@@H](C)CC)[C@@H](C)CC)C(C)C)C(C)C
Consider B3, for which the EC50 [nM], 0% HSA came out at 0.91 nM.

B4: SEQ ID NO: 75 (peptide)
peptide: IVLSLDVPIKLK([AEEA-AEEA-γGlu-C18 diacid])QILLKQERQKKQRQQAETN[Aib]QILAQV-NH2
modifications: N-terminus assumed
SMILES: CC[C@H](C)[C@H](N)C(=O)N[C@H](C(=O)N[C@@H](CC(C)C)C(=O)N[C@@H](CO)C(=O)N[C@@H](CC(C)C)C(=O)N[C@@H](CC(=O)O)C(=O)N[C@H](C(=O)N1CCC[C@H]1C(=O)N[C@H](C(=O)N[C@@H](CCCCN)C(=O)N[C@@H](CC(C)C)C(=O)N[C@@H](CCCCNC(=O)COCCOCCNC(=O)COCCOCCNC(=O)CC[C@H](NC(=O)CCCCCCCCCCCCCCCCC(=O)O)C(=O)O)C(=O)N[C@@H](CCC(N)=O)C(=O)N[C@H](C(=O)N[C@@H](CC(C)C)C(=O)N[C@@H](CC(C)C)C(=O)N[C@@H](CCCCN)C(=O)N[C@@H](CCC(N)=O)C(=O)N[C@@H](CCC(=O)O)C(=O)N[C@@H](CCCNC(=N)N)C(=O)N[C@@H](CCC(N)=O)C(=O)N[C@@H](CCCCN)C(=O)N[C@@H](CCCCN)C(=O)N[C@@H](CCC(N)=O)C(=O)N[C@@H](CCCNC(=N)N)C(=O)N[C@@H](CCC(N)=O)C(=O)N[C@@H](CCC(N)=O)C(=O)N[C@@H](C)C(=O)N[C@@H](CCC(=O)O)C(=O)N[C@H](C(=O)N[C@@H](CC(N)=O)C(=O)NC(C)(C)C(=O)N[C@@H](CCC(N)=O)C(=O)N[C@H](C(=O)N[C@@H](CC(C)C)C(=O)N[C@@H](C)C(=O)N[C@@H](CCC(N)=O)C(=O)N[C@H](C(N)=O)C(C)C)[C@@H](C)CC)[C@@H](C)O)[C@@H](C)CC)[C@@H](C)CC)C(C)C)C(C)C
Turning to B4, the EC50 [nM], 0% HSA was 0.48 nM.

B5: SEQ ID NO: 73 (peptide)
peptide: IVLSLDVPIKLK([AEEA-AEEA-γGlu-C18 diacid])QILLEQERQKKQRQKAETN[Aib]QILAQV-NH2
modifications: N-terminus assumed
SMILES: CC[C@H](C)[C@H](N)C(=O)N[C@H](C(=O)N[C@@H](CC(C)C)C(=O)N[C@@H](CO)C(=O)N[C@@H](CC(C)C)C(=O)N[C@@H](CC(=O)O)C(=O)N[C@H](C(=O)N1CCC[C@H]1C(=O)N[C@H](C(=O)N[C@@H](CCCCN)C(=O)N[C@@H](CC(C)C)C(=O)N[C@@H](CCCCNC(=O)COCCOCCNC(=O)COCCOCCNC(=O)CC[C@H](NC(=O)CCCCCCCCCCCCCCCCC(=O)O)C(=O)O)C(=O)N[C@@H](CCC(N)=O)C(=O)N[C@H](C(=O)N[C@@H](CC(C)C)C(=O)N[C@@H](CC(C)C)C(=O)N[C@@H](CCC(=O)O)C(=O)N[C@@H](CCC(N)=O)C(=O)N[C@@H](CCC(=O)O)C(=O)N[C@@H](CCCNC(=N)N)C(=O)N[C@@H](CCC(N)=O)C(=O)N[C@@H](CCCCN)C(=O)N[C@@H](CCCCN)C(=O)N[C@@H](CCC(N)=O)C(=O)N[C@@H](CCCNC(=N)N)C(=O)N[C@@H](CCC(N)=O)C(=O)N[C@@H](CCCCN)C(=O)N[C@@H](C)C(=O)N[C@@H](CCC(=O)O)C(=O)N[C@H](C(=O)N[C@@H](CC(N)=O)C(=O)NC(C)(C)C(=O)N[C@@H](CCC(N)=O)C(=O)N[C@H](C(=O)N[C@@H](CC(C)C)C(=O)N[C@@H](C)C(=O)N[C@@H](CCC(N)=O)C(=O)N[C@H](C(N)=O)C(C)C)[C@@H](C)CC)[C@@H](C)O)[C@@H](C)CC)[C@@H](C)CC)C(C)C)C(C)C
As for B5, the EC50 [nM], 0% HSA is 2.6 nM.

B6: SEQ ID NO: 74 (peptide)
peptide: IVLSLDVPIKLK([AEEA-AEEA-γGlu-C18 diacid])QILLEQERQKKQREQAETN[Aib]QILERV-NH2
modifications: N-terminus assumed
SMILES: CC[C@H](C)[C@H](N)C(=O)N[C@H](C(=O)N[C@@H](CC(C)C)C(=O)N[C@@H](CO)C(=O)N[C@@H](CC(C)C)C(=O)N[C@@H](CC(=O)O)C(=O)N[C@H](C(=O)N1CCC[C@H]1C(=O)N[C@H](C(=O)N[C@@H](CCCCN)C(=O)N[C@@H](CC(C)C)C(=O)N[C@@H](CCCCNC(=O)COCCOCCNC(=O)COCCOCCNC(=O)CC[C@H](NC(=O)CCCCCCCCCCCCCCCCC(=O)O)C(=O)O)C(=O)N[C@@H](CCC(N)=O)C(=O)N[C@H](C(=O)N[C@@H](CC(C)C)C(=O)N[C@@H](CC(C)C)C(=O)N[C@@H](CCC(=O)O)C(=O)N[C@@H](CCC(N)=O)C(=O)N[C@@H](CCC(=O)O)C(=O)N[C@@H](CCCNC(=N)N)C(=O)N[C@@H](CCC(N)=O)C(=O)N[C@@H](CCCCN)C(=O)N[C@@H](CCCCN)C(=O)N[C@@H](CCC(N)=O)C(=O)N[C@@H](CCCNC(=N)N)C(=O)N[C@@H](CCC(=O)O)C(=O)N[C@@H](CCC(N)=O)C(=O)N[C@@H](C)C(=O)N[C@@H](CCC(=O)O)C(=O)N[C@H](C(=O)N[C@@H](CC(N)=O)C(=O)NC(C)(C)C(=O)N[C@@H](CCC(N)=O)C(=O)N[C@H](C(=O)N[C@@H](CC(C)C)C(=O)N[C@@H](CCC(=O)O)C(=O)N[C@@H](CCCNC(=N)N)C(=O)N[C@H](C(N)=O)C(C)C)[C@@H](C)CC)[C@@H](C)O)[C@@H](C)CC)[C@@H](C)CC)C(C)C)C(C)C
Molecule B6 displayed an EC50 [nM], 0% HSA of 2.12 nM.
